Assay: label from the status in PepcDB records

For “MKTFEVMIQTDSKGYLDAKFGGNAPKAFLNSNGLPTYSPKISWQKVEGAQSYALELIDHDAQKVCGMPFVHWVVGNIAHNVLEENASMMDKRIVQGVNSLTQGFIRSPLNESEKQRSNLNNSVYIGPMPPNGDHHYLIQVYALDIPKLALKAPFFLGDLHDKMRNHIIAIGRKEFLYKQFVRK”, the protein production was “not failed”.

With “MSDQKNRRNALIGAAFLMATSAIGPGFLTQTATFTQALAASFGFVILLSILLDIGAQLNIWRIVAVSEKQAQDIANQVLPGAGYFLAVLIVMGGLAFNIGNVGGAGLGLNLLTGLSPETGAVISGVIAIGVFLFKEAGKVMDKFAQVMGFVMIALTVYVAWQANPPLADAAVHTFMPEKLDAMAIVTLVGGTVGGYITFAGAHRLLDAGIKGKSALPEVSQSSVRAILIASIMRIVLFLAVLGVVSQGVQLNPDNPASTPFEYAAGYIGLLIFGVVIWAASITSVIGAAYTSVSFFSGLSPSIERNKNKWIIAFIAVSTAVFSTIGKPAQVLVFVGALNGLILPISLGLILIAAYKTKIVGDYKHPLWLTVSGVIVVGLMAVLSAITISKYIGGLFG” the protein production was “failed”.

In the case of “MMPYITDIAALEHVGVAAAWTEKVPAFRVLREKRMLDFRAPITVITGENGVGKSTLLEAIAINAGFDTAGGEHTGKFKPSDNPLQTVAKAHKGKEPMRGYFLRAETHFNVASGYRDEAPGWVNLHHMSHGESVMHIVQNAFVGKGLYLMDEPEAGLSFIRQMAILAELNFLAESGAQIIIVTHSPVLMAIPGAEIWEFSASGELHRGFDFEVTTAFRALRDFFEDPEEIAEYMMDVMMDNKGESLEHHHHHH”, the protein production was “failed”.

For “QAELMTLTIVKGAQGFGFTIADSPTGQRVKQILDIQGCPGLCEGDLIVEINQQNVQNLSHTEVVDILKDCPIGSETSLIIHRG”, the protein production was “not failed”.

For “MTNKQKMRKRRRALLCVFAAFAFSFNPLGKIAYATPKQDTSVVNYVKTQEETSNSIQNQPISSYWYPEDLLKWSANNDKDAKFNKSTVPLAKRVEKDKLDTINDTQNKDVKVVAISIMNANTSGNPSQGSNKFSANTFSYWQYIDKLVYWGGSAGEGLIVPPSPDVTDSAHRNGVPVLGTVFFPMTAHGGKMEWLNKFLEKDANGNFPIVDKLIEVAENYGFDGWFINQETEGTEQEPLTPEHAKLMQELIKQFKAKSNGKFEIMWYDSMTKDGDMDWQNALTDKNEYFLLDGDKNKVADSIFLNFWWTYNSLKDKDLLRVSNEKAKEIGINPYDLYAGIDVQANGYKTPLRWTHYQRDDQAPFTSLGLYCPSWTYFDAKTPEQFQENENRLWVNEHGDPSKTTNAQGVDWRGISTYSVEKSAVTSLPFTTNFNIGNGYDFYVDGNKVSTQDWNNRSLNDIMPTYRWVISNEENNNVKADIDYTTAYYGGNSIKLSGYLAEGKASTIKLYSSDLTLPEGVQFTTTAKANGNTVDMDLVLTFHDGTETTISADKKLGTDWTKLNYDVSPYVGKSIKTISYKLSSPVCVDNFSANLGNITIEIPNSSSKVNISNAKLNDVDFKDGIYAGARLSWSPEGNSSDVHHYEIYRVMNDGTKVLLGATPNTSYYVSDLRRNDKETNTNFEVVAVNKNFNRGNSQSINMEWPAYPAPTASFKVSNTLIAPGQSVTFTNTSSEVTEEIQWKFPGAKVESSTEQNPTVTYEKEGVYPVILTAKNSSGENVETKTELITVTNAAKDGLVNLSLNKSAKASSFVNENEAPQYALDGNVKTKWCAVGSAPHTLTIDLGDIKTIGELEISHAEAGGESSGMNTKAYSFEVSNDGENFTPVLNVDDNTKAISNDAFPVTKARYVRLNIIQPTQGADSAARIYEVAVKGLDGNVDLPPVMNPDDSNKPVDPDQPENPDKPNNPEKPENPDNPGNTDKPVNPDQPGDSEKPETPNKPGDTENPEGKPANPSDLVSKEITENSALLSWKAPEKVESIQEYVVYQDGKEIGRVPTDKTPLEFLVKDLKPNTKYNFEVSSIDKDGKESDKISLEVTTKKKDNGNLPNTGSPIGAGALATTGIALSSAGVYLTLKKKRK”, the protein production was “failed”.

In the case of “MSLTEKFRPTLKDVARQAGVSIATASRALADNPAVAASTRERIQQLASDLGYRANAQARALRSSRSNTIGVIVPSLINHYFAAMVTEIQSTASKAGLATIITNSNEDATTMSGSLEFLTSHGVDGIICVPNEECANQLEDLQKQGMPVVLVDRELPGDSTIPTATSNPQPGIAAAVELLAHNNALPIGYLSGPMDTSTGRERLEDFKAACANSKIGEQLVFLGGYEQSVGFEGATKLLDQGAKTLFAGDSMMTIGVIEACHKAGLVIGKDVSVIGFDTHPLFALQPHPLTVIDQNVEQLAQRAVSILTELIAGTVPSVTKTTIPTALIHRESIINSTLRKEGHHHHHH”, the protein production was “not failed”.

For “MEGKEEDVRVGANKFPERQPIGTSAQSDKDYKEPPPAPFFEPGELSSWSFWRAGIAEFIATFLFLYITVLTVMGVKRSPNMCASVGIQGIAWAFGGMIFALVYCTAGISGGHINPAVTFGLFLARKLSLTRALYYIVMQCLGAICGAGVVKGFQPKQYQALGGGANTVAHGYTKGSGLGAEIIGTFVLVYTVFSATDAKRNARDSHVPILAPLPIGFAVFLVHLATIPITGTGINPARSLGAAIIYNKDHSWDDHWVFWVGPFIGAALAALYHVVVIRAIPFKSRS”, the protein production was “failed”.

With “TVDLNMQRRAEETVQKAFQQARSRGLRADQIAVAAVDPRTHFVKVLVGGRDYEESQFNRAIQSQRQPGSAFKPFVYYSAFASGNYTPFSTIDDSPVSYPDGNGTYSPQNYGGSFSGTVSLYDALVTSKNVPAVKLGKAVGLEKVIELCRLLGIESPLQPVISLPLGAVGISPLEMASAYATFASNGWQSETTLILRVTDSQGNVLLDNTPQPRLVLDPWATASLTTVLQGVVNGGTGQAANLGDRPAAGKTGTTSSERDVWFVGYVPQLAAAVWIGNDDYRPMGTGTTGGGDAAPIWRAFMQEALKGEEPQYF” the protein production was “failed”.

In the case of “MANDGYFEPTQELSDETRDMHRAIISLREELEAVDLYNQRVNACKDKELKAILAHNRDEEKEHAAMLLEWIRRCDPAFDKELKDYLFTNKPIAHE”, the protein production was “not failed”.

For “MNIGTFDRLLFAYSIGSHILIVLMSIGLSVILPVLEYIAIKYKDVYYDLLTRRVAKALVMFFAVGTASGAVMAVELIDLFPKFMTIIAVVGVLPFYYEIFAFFLETIMLVSYYYYWDVFKNRMHHWLLTFGVAGGTLASAVFITMINAWMNTPNGFNISYYEKTGKLIDVNPFITALTPSTGREVFHVVIVTAFAGLMVLGAFFAYQYLRAKTEEAKTLYMKGLKVTFPMNMFLIIMAGLSGTLEMSGLLTYQPEKYAALDLNPYPIARDAPEHLFGTIVEKNGHYYVLGGIKIPFVQSLLAGNGNLNTPVPGLSQFPTSTWPPLAVHDTFDLMVIGGTLLGLFLLSVLIAWILKKKPYESKGFMVAQILFAILTIPIYIGGWVTDEVGRQPWIIYNVMTVYQAANYSPSIIVPGYLIMAFYTILMPFSYWYAFRLMKQGDVKKEISSYKMPSTAHGR”, the protein production was “failed”.

For “MIFERIKSEGLAHLSYLIGSGDEAIVIDPRRDCQVYFDLARSKGMKIKYIFETHRNEDYIIGSLELEKLTDAGIYHGSGVDFKYGNILKKDRQEFIFGALKLTALHTPGHTDESMSYVLTDPDAGKEPIMVFTGDALFVGDVGRTDLYGPEEVPRLAANLYDSIFNKILPLGDGVILCPAHGAGSLCGGAISNREYSTLGLEKVQNPVLKKTEKEEFVKFKLEEKLEFPPYFKKMEQYNLQGPPLLQSLPIPKLLSPDEFKAEMEKGAVVVDTRMPHSFGGALIKGSYSIWLEGLPSFAGWMLPYDKPILLVLEEKEQLETAVRYLVRLGYDNMRGFLNGGIAAWYMEALQIDGFNLLSVHDLKSKLEKDEEIVILDVRSNEEWEEGHIEGARHIYVGHVEENLDEIPKDCPIVVYCGSARRSNIAASVLKKHGYRKIYNVLGSMVAWKNAGYEVVK”, the protein production was “failed”.

With “MGVRLAVRCFVVDGVLIDTGAKSMENEFTSFFQQQDIDQVVITHFHEDHTGCAAFLQRSMGLPIYMNEPMIEYCRQKADYPLYRKIFWGKRDPFAAKPIGATFSSRNATWDVIPTPGHAIDHVVFLNRETGQLFSGDLYCQEKTKVILREEDIPTIIASLQHVLTYDFGDVFCAHAGYLPLEHHHHHH” the protein production was “failed”.

With “KSTVEKSTVGQKVAIVREDTGTIAELAEKALGNMVDIVYAGSDLKEAEEAVKKEKAPAIIVIPKGFSQSLESGEKARLEIVWYLRGTGLSEAVSTGTISSLIESLKVQLASFLLNDPKKAQLLFDPLEIVQHTYLRGSLFKNHSPEAIMNVFYSQN” the protein production was “not failed”.

— a protein production outcome set (Wang et al. 2014)
